Assay results taken from patent US20230279089A1.

B1: 13Y039-4B06-4334 human variable region on mouse IgG2a LAGA Fc, mouse cKappa (Compound A) (antibody)
heavy: QVQLVQSGAEVKKPGASVKVSCKASGYTFLGYYMSWVRQAPGQGLEWMGWINPLSGETNYAQKFQGRVTMTRDTSISTAYMELSRLRSDDTAVYYCARDTGELDGMNWYFDLWGRGTLVTVSSAKTTAPSVYPLAPVCGDTTGSSVTLGCLVKGYFPEPVTLTWNSGSLSSGVHTFPAVLQSDLYTLSSSVTVTSSTWPSQSITCNVAHPASSTKVDKKIEPRGPTIKPCPPCKCPAPNLAGAPSVFIFPPKIKDVLMISLSPIVTCVVVDVSEDDPDVQISWFVNNVEVHTAQTQTHREDYNSTLRVVSALPIQHQDWMSGKEFKCKVNNKDLPAPIERTISKPKGSVRAPQVYVLPPPEEEMTKKQVTLTCMVTDFMPEDIYVEWTNNGKTELNYKNTEPVLDSDGSYFMYSKLRVEKKNWVERNSYSCSVVHEGLHNHHTTKSFSRTPGK
light: EIVLTQSPATLSLSPGERATLSCRASQSVSSYLAWYQQKPGQAPRLLIYDASNRATGIPARFSGSGSGTDFTLTISSLEPEDFAVYYCQQSDSWPPTFGGGTKVEIKRADAAPTVSIFPPSSEQLTSGGASVVCFLNNFYPKDINVKWKIDGSERQNGVLNSWTDQDSKDSTYSMSSTLTLTKDEYERHNSYTCEATHKTSTSPIVKSFNRNEC
B2: 13Y039-4B06-4334 human variable region on rat IgG2b LAGA Fc and rat Kappa (Compound C) (antibody)
heavy: QVQLVQSGAEVKKPGASVKVSCKASGYTFLGYYMSWVRQAPGQGLEWMGWINPLSGETNYAQKFQGRVTMTRDTSISTAYMELSRLRSDDTAVYYCARDTGELDGMNWYFDLWGRGTLVTVSSAQTTAPSVYPLAPGCGDTTSSTVTLGCLVKGYFPEPVTVTWNSGALSSDVHTFPAVLQSGLYTLTSSVTSSTWPSQTVTCNVAHPASSTKVDKKVERRNGGIGHKCPTCPTCHKCPVPELAGAPSVFIFPPKPKDILLISQNAKVTCVVVDVSEEEPDVQFSWFVNNVEVHTAQTQPREEQYNSTFRVVSALPIQHQDWMSGKEFKCKVNNKALPSPIEKTISKPKGLVRKPQVYVMGPPTEQLTEQTVSLTCLTSGFLPNDIGVEWTSNGHIEKNYKNTEPVMDSDGSFFMYSKLNVERSRWDSRAPFVCSVVHEGLHNHHVEKSISRPPGK
light: EIVLTQSPATLSLSPGERATLSCRASQSVSSYLAWYQQKPGQAPRLLIYDASNRATGIPARFSGSGSGTDFTLTISSLEPEDFAVYYCQQSDSWPPTFGGGTKVEIKRADAAPTVSIFPPSTEQLATGGASVVCLMNNFYPRDISVKWKIDGTERRDGVLDSVTDQDSKDSTYSMSSTLSLTKADYESHNLYTCEVVHKTSSSPVVKSFNRNEC

Assays:
Assay in all cases: cell-based or functional assay
[1] = biological target: BMP1/TLL activity in mouse plasma
[2] = biological target: BMP1/TLL activity in human serum
[3] = biological target: endogenous BMP1 of human primary cardiac fibroblasts (human), P13497
endogenous BMP1 of human primary cardiac fibroblasts (human), P13497, sequence (P13497 121-986): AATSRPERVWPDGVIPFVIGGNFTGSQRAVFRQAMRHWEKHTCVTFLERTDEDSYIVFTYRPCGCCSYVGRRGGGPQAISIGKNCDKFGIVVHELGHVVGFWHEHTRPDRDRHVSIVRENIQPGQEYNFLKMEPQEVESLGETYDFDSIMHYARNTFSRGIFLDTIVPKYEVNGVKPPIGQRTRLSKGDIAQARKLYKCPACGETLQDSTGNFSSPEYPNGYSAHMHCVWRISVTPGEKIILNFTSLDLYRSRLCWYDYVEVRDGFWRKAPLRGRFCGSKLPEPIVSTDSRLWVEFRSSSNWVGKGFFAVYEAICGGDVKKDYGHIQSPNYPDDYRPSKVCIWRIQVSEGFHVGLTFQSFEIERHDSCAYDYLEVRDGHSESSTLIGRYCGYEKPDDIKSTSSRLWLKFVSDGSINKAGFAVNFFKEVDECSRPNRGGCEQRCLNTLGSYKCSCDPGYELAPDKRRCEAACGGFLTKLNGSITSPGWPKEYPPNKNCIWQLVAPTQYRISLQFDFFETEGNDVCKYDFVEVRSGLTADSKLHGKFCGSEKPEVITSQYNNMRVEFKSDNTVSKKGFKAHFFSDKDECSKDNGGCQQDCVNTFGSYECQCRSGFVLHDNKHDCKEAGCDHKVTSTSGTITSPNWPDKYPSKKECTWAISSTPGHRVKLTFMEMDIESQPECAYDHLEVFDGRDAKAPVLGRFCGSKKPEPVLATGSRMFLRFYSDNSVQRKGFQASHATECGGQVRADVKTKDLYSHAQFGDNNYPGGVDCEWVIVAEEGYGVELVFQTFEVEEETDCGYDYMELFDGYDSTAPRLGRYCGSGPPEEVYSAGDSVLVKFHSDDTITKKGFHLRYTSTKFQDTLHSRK

[4] = biological target: BMP1/TLL activity in rat plasma

Binder	pIC50, FRET enzyme activity, Mouse plasma (n = 1) [1]	pIC50, FRET enzyme activity, Human serum (n = 1) [2]	pIC50, scar-in-a-jar (SIJ) assay [3]	pIC50, FRET enzyme activity, Rat plasma (n = 2) [4]
B1	7.5	10.1	9.8	–
B2	–	8.7	–	9.1
